Reference: patent US20250002581A1

Tests used:
PD1 (human) [1] = biological target: PD1 (human) (UniProt Q15116); assay: flow cytometry on 293T-PD1 cells, antibody 10 ng/ml; average ± deviation
PD1 (human) [2] = biological target: PD1 (human) (UniProt Q15116); assay: flow cytometry on 293T-PD1 cells, antibody 10 ng/ml, second anti-human Fc antibody; the filing calls this staining non-specific

Sequence of PD1 (human) (Q15116 25-288): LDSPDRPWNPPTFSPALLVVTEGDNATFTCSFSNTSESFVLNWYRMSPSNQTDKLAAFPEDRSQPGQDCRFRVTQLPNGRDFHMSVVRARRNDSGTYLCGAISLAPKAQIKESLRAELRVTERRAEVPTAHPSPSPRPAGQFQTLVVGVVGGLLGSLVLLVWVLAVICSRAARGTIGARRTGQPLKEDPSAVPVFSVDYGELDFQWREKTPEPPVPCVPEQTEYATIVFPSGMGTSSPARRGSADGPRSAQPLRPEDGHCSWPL

| 293T-PD1 (%) (PD1 (human) [1]) | 293T-PD1 (%) (PD1 (human) [2]) | Binder |
| --- | --- | --- |
| 3.15 |  | murine CH101 (antibody, V domains shown) VH: EVQLEESGPDLVKPSQSLSLTCTVTGYSITSGFAWHWLRQFPGNRLEWMGYIHYSGSTNYNPSLKSRISITRDTSKNQFFLQLNSVTTEDTATFYCARSDFWGQGTFVTVSS VL: DVVMTQTPLNLSVTFGQPVSISCTSSQSLLDRDGETFMNWLFQRPGQSPKRLIYLVSKLDFGVPDRFTGSGSGTDFTLKISRVEAEDLGIYYCWQGTHFPLTFGGGTKLEIK |
|  | 38.5 | CH101-huIgG1(L/S) (antibody, not shown: a dimerising Fc or GST) heavy: EVQLEESGPDLVKPSQSLSLTCTVTGYSITSGFAWHWLRQFPGNRLEWMGYIHYSGSTNYNPSLKSRISITRDTSKNQFFLQLNSVTTEDTATFYCARSDFWGQGTFVTVSS light: DVVMTQTPLNLSVTFGQPVSISCTSSQSLLDRDGETFMNWLFQRPGQSPKRLIYLVSKLDFGVPDRFTGSGSGTDFTLKISRVEAEDLGIYYCWQGTHFPLTFGGGTKLEIKRTVAAPSVFIFPPSDEQLKSGTASVVCLLNNFYPREAKVQWKVDNALQSGNSQESVTEQDSKDSTYSLSSTLTLSKADYEKHKVYACEVTHQGLSSPVTKSFNRGEC |
